Assay results taken from paper PMC9482650, “Quantitative fragmentomics allow affinity mapping of interactomes” (Nature Communications, 2022).

T1: CARD11, Q9BXL7
T1 sequence (Q9BXL7 662-765, limits assumed, looked up): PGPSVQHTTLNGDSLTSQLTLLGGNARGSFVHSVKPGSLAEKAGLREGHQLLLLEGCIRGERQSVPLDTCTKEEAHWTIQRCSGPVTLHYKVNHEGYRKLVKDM

T2: DLG3_2, Q92796
T2 sequence (Q92796 221-321, limits assumed, looked up): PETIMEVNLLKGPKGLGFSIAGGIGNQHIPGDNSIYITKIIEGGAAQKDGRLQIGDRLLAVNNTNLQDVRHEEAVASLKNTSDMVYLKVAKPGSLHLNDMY

T3: FRMPD1, Q5SYB0
T3 sequence (Q5SYB0 52-145, limits assumed, looked up): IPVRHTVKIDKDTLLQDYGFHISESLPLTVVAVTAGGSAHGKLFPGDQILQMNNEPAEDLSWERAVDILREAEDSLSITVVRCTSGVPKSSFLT

T4: GRIP1_4, Q9Y3R0
T4 sequence (Q9Y3R0 467-571, limits assumed, looked up): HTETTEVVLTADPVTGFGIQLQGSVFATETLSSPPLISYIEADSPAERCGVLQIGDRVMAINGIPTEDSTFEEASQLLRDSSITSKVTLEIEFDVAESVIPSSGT

T5: LIN7A, O14910
T5 sequence (O14910 103-200, limits assumed, looked up): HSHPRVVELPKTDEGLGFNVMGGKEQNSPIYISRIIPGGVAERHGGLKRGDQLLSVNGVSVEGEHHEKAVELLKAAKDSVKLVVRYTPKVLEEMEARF

T6: MPP6, Q9NZW5
T6 sequence (Q9NZW5 125-219, limits assumed, looked up): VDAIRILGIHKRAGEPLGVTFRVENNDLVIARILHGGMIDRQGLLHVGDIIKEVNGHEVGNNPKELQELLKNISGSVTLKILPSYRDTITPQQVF

T7: MPP7, Q5T2T1
T7 sequence (Q5T2T1 134-230, limits assumed, looked up): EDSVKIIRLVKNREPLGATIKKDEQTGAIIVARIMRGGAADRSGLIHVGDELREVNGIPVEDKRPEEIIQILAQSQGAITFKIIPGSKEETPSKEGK

T8: RAPGEF6, Q8TEU7
T8 sequence (Q8TEU7 525-625, limits assumed, looked up): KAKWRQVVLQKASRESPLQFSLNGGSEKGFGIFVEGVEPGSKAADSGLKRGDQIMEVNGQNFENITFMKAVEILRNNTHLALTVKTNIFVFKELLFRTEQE

T9: SNTG1, Q9NSN8
T9 sequence (Q9NSN8 52-150, limits assumed, looked up): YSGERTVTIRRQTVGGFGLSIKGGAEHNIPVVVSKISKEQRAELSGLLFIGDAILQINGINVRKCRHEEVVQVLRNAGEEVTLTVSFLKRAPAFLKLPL


What was measured:
Assay in all cases: holdup assay
Set-up in all cases: key: below the threshold = too weak to quantify, mostly under pKd 3.1 to 4
Settings in all cases: plain residues with an end cap or a label only (N-terminal biotin on a linker: ado-ado)
AHNAK1, Q09666 = molecular target: AHNAK1, Q09666
CARD11, Q9BXL7 = molecular target: T1, CARD11, Q9BXL7
DLG1_2, Q12959 = molecular target: DLG1_2, Q12959
DLG3_2, Q92796 = molecular target: T2, DLG3_2, Q92796
FRMPD1, Q5SYB0 = molecular target: T3, FRMPD1, Q5SYB0
FRMPD2_3, Q68DX3 = molecular target: FRMPD2_3, Q68DX3
GRIP1_4, Q9Y3R0 = molecular target: T4, GRIP1_4, Q9Y3R0
GRIP2_4, Q9C0E4 = molecular target: GRIP2_4, Q9C0E4
GRIP2_5, Q9C0E4 = molecular target: GRIP2_5, Q9C0E4
GRIP2_6, Q9C0E4 = molecular target: GRIP2_6, Q9C0E4
HTRA1, Q92743 = molecular target: HTRA1, Q92743
HTRA2, O43464 = molecular target: HTRA2, O43464
IL16_3, Q14005 = molecular target: IL16_3, Q14005
IL16_4, Q14005 = molecular target: IL16_4, Q14005
Inadl_9, Q8NI35 = molecular target: Inadl_9, Q8NI35
LDB3, O75112 = molecular target: LDB3, O75112
LIMK2, P53671 = molecular target: LIMK2, P53671
LIN7A, O14910 = molecular target: T5, LIN7A, O14910
LNX1_1, Q8TBB1 = molecular target: LNX1_1, Q8TBB1
LNX1_3, Q8TBB1 = molecular target: LNX1_3, Q8TBB1
MAGI1_1, Q96QZ7 = molecular target: MAGI1_1, Q96QZ7
MAGI1_2, Q96QZ7 = molecular target: MAGI1_2, Q96QZ7
MAST1, Q9Y2H9 = molecular target: MAST1, Q9Y2H9
MPP6, Q9NZW5 = molecular target: T6, MPP6, Q9NZW5
MPP7, Q5T2T1 = molecular target: T7, MPP7, Q5T2T1
NHERF4_4, Q86UT5 = molecular target: NHERF4_4, Q86UT5
PDZRN4_1, Q6ZMN7 = molecular target: PDZRN4_1, Q6ZMN7
RAPGEF6, Q8TEU7 = molecular target: T8, RAPGEF6, Q8TEU7
SNTG1, Q9NSN8 = molecular target: T9, SNTG1, Q9NSN8

Chain of MAST1, Q9Y2H9 (Q9Y2H9 962-1065): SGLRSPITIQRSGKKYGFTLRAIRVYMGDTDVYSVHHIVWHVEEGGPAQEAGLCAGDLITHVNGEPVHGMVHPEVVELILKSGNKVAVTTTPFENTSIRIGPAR
Chain of HTRA1, Q92743 (Q92743 360-477): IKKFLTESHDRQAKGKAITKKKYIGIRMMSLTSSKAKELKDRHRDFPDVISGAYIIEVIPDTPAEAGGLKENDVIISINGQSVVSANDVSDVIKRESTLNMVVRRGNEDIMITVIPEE
Chain of IL16_3, Q14005 (Q14005 1107-1207): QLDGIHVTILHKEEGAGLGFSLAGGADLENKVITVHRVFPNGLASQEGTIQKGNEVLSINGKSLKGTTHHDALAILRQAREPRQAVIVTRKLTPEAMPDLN
Chain of Inadl_9, Q8NI35 (Q8NI35 1530-1615): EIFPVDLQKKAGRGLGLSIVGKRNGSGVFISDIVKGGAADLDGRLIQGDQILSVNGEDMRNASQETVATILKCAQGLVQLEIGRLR
Chain of LIMK2, P53671 (P53671 143-248): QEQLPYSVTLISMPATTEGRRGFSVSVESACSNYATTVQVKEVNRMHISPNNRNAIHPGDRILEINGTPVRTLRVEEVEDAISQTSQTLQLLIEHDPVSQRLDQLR
Chain of NHERF4_4, Q86UT5 (Q86UT5 464-550): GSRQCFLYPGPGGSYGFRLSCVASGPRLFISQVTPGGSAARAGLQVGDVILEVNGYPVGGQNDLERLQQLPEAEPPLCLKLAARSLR
Chain of HTRA2, O43464 (O43464 355-458): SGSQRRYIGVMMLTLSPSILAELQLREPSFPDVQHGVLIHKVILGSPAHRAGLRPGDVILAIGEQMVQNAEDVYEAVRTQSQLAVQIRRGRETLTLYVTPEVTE
Chain of AHNAK1, Q09666 (Q09666 4-100): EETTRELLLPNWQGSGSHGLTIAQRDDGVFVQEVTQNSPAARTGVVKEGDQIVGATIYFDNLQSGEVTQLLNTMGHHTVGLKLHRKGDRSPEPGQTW
Chain of GRIP2_4, Q9C0E4 (Q9C0E4 446-548): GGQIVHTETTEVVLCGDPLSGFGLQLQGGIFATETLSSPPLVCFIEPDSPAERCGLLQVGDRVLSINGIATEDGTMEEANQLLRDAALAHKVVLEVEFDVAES
Chain of FRMPD2_3, Q68DX3 (Q68DX3 1073-1166): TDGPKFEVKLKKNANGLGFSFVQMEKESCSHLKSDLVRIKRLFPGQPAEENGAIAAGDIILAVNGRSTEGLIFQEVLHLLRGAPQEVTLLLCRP
Chain of PDZRN4_1, Q6ZMN7 (Q6ZMN7 213-318): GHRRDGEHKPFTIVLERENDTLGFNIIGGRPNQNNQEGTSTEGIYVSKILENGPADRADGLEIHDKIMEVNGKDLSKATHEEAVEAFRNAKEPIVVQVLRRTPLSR
Chain of LNX1_1, Q8TBB1 (Q8TBB1 261-371): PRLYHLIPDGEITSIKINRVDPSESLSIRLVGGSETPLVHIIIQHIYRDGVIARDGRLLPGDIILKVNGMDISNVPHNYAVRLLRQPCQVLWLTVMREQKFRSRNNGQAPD
Chain of LDB3, O75112 (O75112 1-94): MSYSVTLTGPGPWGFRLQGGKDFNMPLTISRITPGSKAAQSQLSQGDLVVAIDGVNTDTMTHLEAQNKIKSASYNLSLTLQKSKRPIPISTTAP
Chain of GRIP2_6, Q9C0E4 (Q9C0E4 648-740): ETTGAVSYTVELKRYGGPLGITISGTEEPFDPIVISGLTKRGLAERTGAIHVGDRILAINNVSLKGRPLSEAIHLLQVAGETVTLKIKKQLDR
Chain of MAGI1_1, Q96QZ7 (Q96QZ7 1-106): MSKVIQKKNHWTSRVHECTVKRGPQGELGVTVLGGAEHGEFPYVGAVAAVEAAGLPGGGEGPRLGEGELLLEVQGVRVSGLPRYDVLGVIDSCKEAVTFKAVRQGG
Chain of IL16_4, Q14005 (Q14005 1229-1329): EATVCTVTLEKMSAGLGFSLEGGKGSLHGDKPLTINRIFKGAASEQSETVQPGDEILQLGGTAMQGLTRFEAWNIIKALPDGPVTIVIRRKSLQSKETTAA
Chain of LNX1_3, Q8TBB1 (Q8TBB1 500-596): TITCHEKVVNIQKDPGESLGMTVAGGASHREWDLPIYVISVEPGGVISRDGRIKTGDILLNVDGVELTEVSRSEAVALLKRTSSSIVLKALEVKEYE
Chain of MAGI1_2, Q96QZ7 (Q96QZ7 456-580): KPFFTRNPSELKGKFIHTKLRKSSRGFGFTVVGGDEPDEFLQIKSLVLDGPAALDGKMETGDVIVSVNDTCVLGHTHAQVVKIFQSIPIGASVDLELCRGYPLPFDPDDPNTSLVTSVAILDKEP
Chain of GRIP2_5, Q9C0E4 (Q9C0E4 544-642): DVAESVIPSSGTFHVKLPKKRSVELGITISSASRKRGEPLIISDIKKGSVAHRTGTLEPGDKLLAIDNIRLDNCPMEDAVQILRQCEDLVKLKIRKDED
Chain of DLG1_2, Q12959 (Q12959 314-412): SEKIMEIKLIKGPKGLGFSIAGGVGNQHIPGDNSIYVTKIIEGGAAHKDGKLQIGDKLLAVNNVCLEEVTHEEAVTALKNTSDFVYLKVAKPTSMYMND

Row | pKd (AHNAK1, Q09666) | pKd (CARD11, Q9BXL7) | pKd (DLG1_2, Q12959) | pKd (DLG3_2, Q92796) | pKd (FRMPD1, Q5SYB0) | pKd (FRMPD2_3, Q68DX3) | pKd (GRIP1_4, Q9Y3R0) | pKd (GRIP2_4, Q9C0E4) | pKd (GRIP2_5, Q9C0E4) | pKd (GRIP2_6, Q9C0E4) | pKd (HTRA1, Q92743) | pKd (HTRA2, O43464) | pKd (IL16_3, Q14005) | pKd (IL16_4, Q14005) | pKd (Inadl_9, Q8NI35) | pKd (LDB3, O75112) | pKd (LIMK2, P53671) | pKd (LIN7A, O14910) | pKd (LNX1_1, Q8TBB1) | pKd (LNX1_3, Q8TBB1) | Binder | other results
1 | below the threshold | below the threshold | below the threshold | 4.12 | below the threshold | below the threshold | below the threshold | below the threshold | below the threshold | below the threshold | 3.55 | below the threshold | below the threshold | below the threshold | below the threshold | below the threshold | below the threshold | below the threshold | 3.86 | below the threshold | SAAKVLTSMC [GHRHR, Q02643] | pKd (MAGI1_1, Q96QZ7): below the threshold; pKd (MAGI1_2, Q96QZ7): below the threshold; pKd (MAST1, Q9Y2H9): below the threshold; pKd (MPP6, Q9NZW5): below the threshold; pKd (MPP7, Q5T2T1): below the threshold; pKd (NHERF4_4, Q86UT5): below the threshold; pKd (PDZRN4_1, Q6ZMN7): below the threshold; pKd (RAPGEF6, Q8TEU7): below the threshold; pKd (SNTG1, Q9NSN8): below the threshold
2 | below the threshold | below the threshold | 3.82 | 3.68 | below the threshold | below the threshold | below the threshold | below the threshold | below the threshold | below the threshold | below the threshold | below the threshold | below the threshold | below the threshold | below the threshold | below the threshold | below the threshold | below the threshold | 3.52 | below the threshold | MLSKQSESAI [FLVCR1, Q9Y5Y0] | pKd (MAGI1_1, Q96QZ7): below the threshold; pKd (MAGI1_2, Q96QZ7): below the threshold; pKd (MAST1, Q9Y2H9): 4.18; pKd (MPP6, Q9NZW5): below the threshold; pKd (MPP7, Q5T2T1): below the threshold; pKd (NHERF4_4, Q86UT5): 3.92; pKd (PDZRN4_1, Q6ZMN7): 3.62; pKd (RAPGEF6, Q8TEU7): below the threshold; pKd (SNTG1, Q9NSN8): 3.93
3 | below the threshold | below the threshold | below the threshold | 4.1 | below the threshold | below the threshold | below the threshold | below the threshold | below the threshold | below the threshold | below the threshold | below the threshold | below the threshold | below the threshold | below the threshold | 3.51 | below the threshold | below the threshold | below the threshold | below the threshold | RKPKPSSSCC [RAB9A, P51151] | pKd (MAGI1_1, Q96QZ7): below the threshold; pKd (MAGI1_2, Q96QZ7): 3.64; pKd (MAST1, Q9Y2H9): below the threshold; pKd (MPP6, Q9NZW5): 3.51; pKd (MPP7, Q5T2T1): below the threshold; pKd (NHERF4_4, Q86UT5): below the threshold; pKd (PDZRN4_1, Q6ZMN7): below the threshold; pKd (RAPGEF6, Q8TEU7): below the threshold; pKd (SNTG1, Q9NSN8): below the threshold
4 | below the threshold | below the threshold | 4.5 | 4.25 | below the threshold | below the threshold | below the threshold | below the threshold | below the threshold | below the threshold | below the threshold | below the threshold | below the threshold | below the threshold | below the threshold | 3.65 | below the threshold | 3.77 | below the threshold | below the threshold | TASPAKETSF [SLC2A7, Q6PXP3] | pKd (MAGI1_1, Q96QZ7): below the threshold; pKd (MAGI1_2, Q96QZ7): below the threshold; pKd (MAST1, Q9Y2H9): 4.55; pKd (MPP6, Q9NZW5): below the threshold; pKd (MPP7, Q5T2T1): below the threshold; pKd (NHERF4_4, Q86UT5): below the threshold; pKd (PDZRN4_1, Q6ZMN7): below the threshold; pKd (RAPGEF6, Q8TEU7): below the threshold; pKd (SNTG1, Q9NSN8): 3.56
5 | below the threshold | below the threshold | 4.47 | 4.32 | below the threshold | below the threshold | below the threshold | below the threshold | below the threshold | 3.84 | 3.92 | below the threshold | below the threshold | 3.47 | below the threshold | below the threshold | below the threshold | 3.69 | 4.43 | below the threshold | QSARLWETSI [ADAM22, Q9P0K1] | pKd (MAGI1_1, Q96QZ7): below the threshold; pKd (MAGI1_2, Q96QZ7): below the threshold; pKd (MAST1, Q9Y2H9): 4.92; pKd (MPP6, Q9NZW5): below the threshold; pKd (MPP7, Q5T2T1): 4.22; pKd (NHERF4_4, Q86UT5): 3.91; pKd (PDZRN4_1, Q6ZMN7): 5; pKd (RAPGEF6, Q8TEU7): below the threshold; pKd (SNTG1, Q9NSN8): 4.82
